The target of assay [1] is T1, human FLT3 expressed on the cell surface (human, UniProt P36888 27-993).
T1 construct: FLT3 on human leukemia cell lines, on recombinant cells and on primary blood cells; also called Flk2; STK1
Put plainly: FACS, biotinylated isotype control 10 ug/ml, Streptavidin-PE, PL-21 cells (AML).

Assay [2] deals with T1, human FLT3 expressed on the cell surface. The assay is described as follows: FACS, biotinylated isotype control 10 ug/ml, Streptavidin-PE, RS4;11 cells (B-ALL). For orientation: In flow cytometry, cells or beads pass a laser one at a time.
Assay [3] shares this target. The assay is described as follows: FACS, biotinylated isotype control 10 ug/ml, Streptavidin-PE, NALM-1 cells (CML).
Assay [4] shares this target. Put plainly: FACS, biotinylated isotype control 10 ug/ml, Streptavidin-PE, EOL-1 cells (AML).
Assay [5] has the same target. The assay is described as follows: FACS, biotinylated isotype control 10 ug/ml, Streptavidin-PE, THP-1 cells (AML).
Assay [6] shares this target. Put plainly: FACS, biotinylated isotype control 10 ug/ml, Streptavidin-PE, MV-4-11 cells (AML).
Assay [7] shares this target. The assay is described as follows: FACS, biotinylated isotype control 10 ug/ml, Streptavidin-PE, MONOMAC-1 cells (AML).
For assay [8] the target is unchanged. Put plainly: FACS, biotinylated isotype control 10 ug/ml, Streptavidin-PE, OCI-AML2 cells (AML).
For assay [9] the target is unchanged. The assay is described as follows: FACS, biotinylated isotype control 10 ug/ml, Streptavidin-PE, SKM-1 cells (AML).
For assay [10] the target is unchanged. The assay is described as follows: FACS, biotinylated isotype control 10 ug/ml, Streptavidin-PE, MOLM-13 cells (AML).
Assay [11] shares this target. Put plainly: FACS, biotinylated isotype control 10 ug/ml, Streptavidin-PE, SEM cells (B-ALL).
Assay [12] has the same target. Put plainly: FACS, biotinylated isotype control 10 ug/ml, Streptavidin-PE, REH cells (ALL).
Assay [13] has the same target. The assay is described as follows: competition FACS on MOLM-13 cells: FL titrated 0.1 to 100 ng/ml, 30 min pre-incubation; displaced antibody: biotinylated cHv62-1b37.1 at 10 ug/ml. On the procedure: (§1) In another experiment, The ability of anti-FLT3 antibodies, CHv62.21 and v62-1b37.1, to bind to FLT3 expressed on the surface of human leukemia MOLM-13 cell line was evaluated in the presence of human FLT3 Ligand (hFL). Isotype control antibody, AGS91.1-pAF, was used as a negative control.
(§2) Briefly, The MOLM-13 cells were seeded at a density of 50,000 cells per well onto round-bottom 96 well plates. The plates were washed one time with 150 μl per well of PBS. The cells were Fc blocked (20 μg/mL) at a volume of 50 μl per well in FACS buffer (PBS+2% FBS+0.1% sodium azide) to reduce non-specific binding. Cells were incubated at 4° C. for 15 minutes. Human FLT3 Ligand was added to appropriate wells at 100 ng/mL and serially diluted 1:2 across the plate for a total of 11 points. Cells were incubated for 30 minutes at 4° C. prior to adding biotinylated FLT3 antibodies. After incubation, the biotinylated anti-FLT3 antibodies and isotype control antibody were prepared in FACS buffer at 10 μg/mL and 1 μg/mL and 25 μl was added to wells and incubated for 1 hour at 4° C. Cells were washed two times with FACS buffer and Streptavidin-PE (Jackson immune) was added 100 μl per well and incubated for 1 hour at 4° C. Cells were washed two times with FACS buffer and read on the Attune Cytometer (Life technologies) and analyzed in FlowJo (Tree Star) software.

The target is the same in assay [14]. The assay is described as follows: FACS on MOLM-13 cells: 30 min pre-incubation with human FLT3 ligand, then biotinylated antibody, streptavidin-PE. The method, then:
as §1, §2

Assay [15] shares this target. The assay is described as follows: FACS, biotinylated antibody 10 ug/ml, Streptavidin-PE, OCI-AML2 cells (AML). The method, then:
(§3) CHv62.21 was tested for binding to AML and B-ALL cell lines grown in vitro. (See, FIG. 15A-M). Briefly, CHv62.21 and an isotype matched control antibody were biotinylated using NHS LC biotin. In vitro, exponentially grown cancer cell lines were used for all experiments. Cells were harvested by and washed by centrifugation. Cells were Fc blocked to reduce non-specific binding. Antibodies were diluted to 10 ug/ml final concentration and co-incubated with cells at 4° C. for 1 hour. At the end of the incubation, cells were washed and incubated with secondary detection Streptavidin-PE antibody at a final 1:200 (2.5 ug/ml) dilution for 1 hour at 4° C. After washing un-bound secondary antibody, cells were analyzed by FACS and geometric mean fluorescence was determined and reported. Fluorescence ratio was calculated as follows: Geo mean cHv62.21/Geo mean isotype control=MFR, a measure of fold expression above isotype control.
(§4) Geometric Mean values and Mean Florescence ratios (MFR) values were obtained (Table VI) and histograms are shown (FIG. 15A-M).

Assay [16] shares this target. The assay is described as follows: FACS, biotinylated antibody 10 ug/ml, Streptavidin-PE, RS4;11 cells (B-ALL). The method, then:
as §3, §4

The target is the same in assay [17]. The assay is described as follows: FACS, biotinylated antibody 10 ug/ml, Streptavidin-PE, SEM cells (B-ALL). On the procedure: as §3
Assay [18] has the same target. The assay is described as follows: FACS, biotinylated antibody 10 ug/ml, Streptavidin-PE, NALM-1 cells (CML). The method, then: as §3
For assay [19] the target is unchanged. The assay is described as follows: FACS, biotinylated antibody 10 ug/ml, Streptavidin-PE, MV-4-11 cells (AML). On the procedure: as §3, §4
Assay [20] has the same target. The assay is described as follows: FACS, biotinylated antibody 10 ug/ml, Streptavidin-PE, MONOMAC-1 cells (AML). The method, then:
as §3, §4

Assay [21] shares this target. The assay is described as follows: FACS, biotinylated antibody 10 ug/ml, Streptavidin-PE, MOLM-13 cells (AML). The method, then: as §3
Assay [22] has the same target. Put plainly: FACS, biotinylated antibody 10 ug/ml, Streptavidin-PE, EOL-1 cells (AML). On the procedure:
as §3, §4

Assay [23] shares this target. The assay is described as follows: FACS, biotinylated antibody 10 ug/ml, Streptavidin-PE, SKM-1 cells (AML). On the procedure: as §3, §4
For assay [24] the target is unchanged. The assay is described as follows: FACS, biotinylated antibody 10 ug/ml, Streptavidin-PE, REH cells (ALL). The method, then: as §3, §4
Assay [25] shares this target. Put plainly: FACS, biotinylated antibody 10 ug/ml, Streptavidin-PE, THP-1 cells (AML). The method, then:
as §3, §4

Assay [26] has the same target. Put plainly: FACS, biotinylated antibody 10 ug/ml, Streptavidin-PE, PL-21 cells (AML). The method, then: as §3, §4
The target is the same in assay [27]. Put plainly: flow cytometry, cell surface FLT3.

T1 sequence (P36888 27-993 T227M limits assumed): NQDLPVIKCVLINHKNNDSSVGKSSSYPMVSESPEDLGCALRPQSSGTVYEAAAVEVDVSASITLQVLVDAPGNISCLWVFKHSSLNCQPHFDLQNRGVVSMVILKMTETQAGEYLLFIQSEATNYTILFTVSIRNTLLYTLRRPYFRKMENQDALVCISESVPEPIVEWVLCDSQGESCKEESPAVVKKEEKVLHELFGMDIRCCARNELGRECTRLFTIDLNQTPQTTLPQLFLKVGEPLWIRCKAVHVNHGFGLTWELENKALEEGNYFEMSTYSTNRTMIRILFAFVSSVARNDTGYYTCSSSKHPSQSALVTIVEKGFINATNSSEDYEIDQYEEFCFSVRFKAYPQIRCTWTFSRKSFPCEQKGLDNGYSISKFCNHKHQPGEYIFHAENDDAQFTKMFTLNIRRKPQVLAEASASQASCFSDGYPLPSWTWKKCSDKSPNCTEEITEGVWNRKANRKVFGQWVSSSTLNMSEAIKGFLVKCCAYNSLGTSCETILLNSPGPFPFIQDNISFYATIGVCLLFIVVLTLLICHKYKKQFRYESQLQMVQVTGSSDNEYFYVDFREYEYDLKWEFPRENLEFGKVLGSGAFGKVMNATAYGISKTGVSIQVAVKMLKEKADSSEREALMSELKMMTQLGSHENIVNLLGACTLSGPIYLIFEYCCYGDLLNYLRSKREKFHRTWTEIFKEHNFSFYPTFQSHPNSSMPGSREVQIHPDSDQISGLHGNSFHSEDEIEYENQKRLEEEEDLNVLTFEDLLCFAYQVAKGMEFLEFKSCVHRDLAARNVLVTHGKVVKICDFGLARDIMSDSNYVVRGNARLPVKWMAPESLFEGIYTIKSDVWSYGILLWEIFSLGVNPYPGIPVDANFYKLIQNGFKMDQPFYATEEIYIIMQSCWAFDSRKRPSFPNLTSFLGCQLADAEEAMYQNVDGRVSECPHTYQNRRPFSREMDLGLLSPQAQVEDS

Regarding “isotype matched control antibody (Example 9)”, the Geometric Mean fluorescence came out at 570 in assay [1]; 213 in assay [2]; 262 in assay [3]; 281 in [4]; 474 in assay [5]; 366 in assay [6]. For the same molecule, the Geometric Mean fluorescence amounted to 338 in [7]; 329 in assay [8]; 445 in assay [9]; 320 in assay [10]; 212 in assay [11]; 235 in assay [12].

B1: human FLT3 ligand (ligand, UniProt P49771 27-185, looked up)
chain: TQDCSFQHSPISSDFAVKIRELSDYLLQDYPVTVASNLQDEELCGGLWRLVLAQRWMERLKTVAGSKMQGLLERVNTEIHFVTKCAFQPPPSCLRFVQTNISRLLQETSEQLVALKPWITRQNFSRCLELQCQPDSSTLPPPWSPRPLEATAPTAPQPP
modifications: biotinylated (Sulfo-NHS-LC-Biotin) in the Luminex assay
notes: later experiments say human FLT3 ligand; Treated as one molecule; also called hFL
In the case of B1, in assay [13], the “IC50 (read off the curve)” value is approximately 10 ng/mL.

B2: v62-1b37.1 (antibody, human IgG1, kappa, V domains shown)
VH: EVQLVESGGGVVRPGGSLRLSCAASGFTFDDYGMSWVRQAPGKGLEWVSGINWNGGSTGYADSVKGRFTISRDDAKNSLYLQMNSLRAEDTALYHCARDGYTYGPFDNWGQGTLVTVSS
VL: DIQMTQSPSSLSASVGDRVTITCRASQGIRNDLGWYQQKPGKAPKRLIYAASSLQSGVPSRFSGSGSGTEFTLTISSLQPEDFATYYCLQHNSYPYTFGQGTKLEIKR
modifications: biotinylated in the MOLM-13 FACS
notes: also called cHv62-1b37.1
Turning to B2, in assay [14], the binding result is recorded as “binds”.

B3: CHv62.21 MAb (antibody, human IgG1, kappa, V domains shown)
VH: EVQLVESGGGLVRPGGSLRLSCAASGFTFSGYSINWVRQAPGKGLEWVSSISSSSNYIYYADSVKGRFTISRDNAKNSLYLQMNSLRAEDTAVYYCAREGFIAGTTFDAFDIWGQGTMVTVSS
VL: DIQMTQSPSSLSASVGDRVTITCRASQGIRNDLGWYQQKPGKAPKRLIYAASSLQSGVPSRFSGSGSGTEFTLTISSLQPEDFATYYCLQHNGFPYTFGQGTKLEIKR
modifications: C-terminal lysine deleted in most of the purified MAb; N-terminal pyroglutamate in a part of it; biotinylated with NHS LC biotin for the FACS of Table VI
notes: Recombinant, CHO-expressed, human IgG1 / kappa; variable regions from hybridoma v62-1b21; ATCC PTA-121831; also called cHv62-1b21.1
With B3, the “MFR (Geo mean cHv62.21/Geo mean isotype control)” value in assay [15] is 17 fold; in [16], 86 fold; in [17], 623 fold; in assay [18] it was 49 fold; in assay [19], 8 fold; in [20] it was 34 fold. The “MFR (Geo mean cHv62.21/Geo mean isotype control)” value in [21] was found to be 44 fold; in [22] it was 50 fold; in assay [23], 7 fold; in assay [24], 69 fold; in [25] it was 42 fold; in [26], 7 fold.

B4: v62-1b21 (hybridoma MAb) (antibody, V domains shown)
VH: EVQLVESGGGLVRPGGSLRLSCAASGFTFSGYSINWVRQAPGKGLEWVSSISSSSNYIYYADSVKGRFTISRDNAKNSLYLQMNSLRAEDTAVYYCAREGFIAGTTFDAFDIWGQGTMVTVSS
VL: DIQMTQSPSSLSASVGDRVTITCRASQGIRNDLGWYQQKPGKAPKRLIYAASSLQSGVPSRFSGSGSGTEFTLTISSLQPEDFATYYCLQHNGFPYTFGQGTKLEIKR
notes: also called AGS62.21; v62.21
Consider B4, for which the binding result in [27] is “binds”.

The record behind these values is US20160272716A1 (AGENSYS, published 2016).
